Source: the supplement of paper PMC10126150
± gives the standard deviation of the averaged measurements.

Test system: ATP
Assay: switch fluorescence ratio, 500 uM ATP over buffer (Cy3 cluster intensity, sum of 5 cycles each) (fold (ratio)); higher = stronger signal-on switching upon ATP binding; sequences stand for … in TCGTCGGCAGCGTCAGATGTGTATAAGAGACAGTTTTTTTTTTTTTTTTTTTTTTTTT…TC
Conditions: aptamer strand: ATP DNA aptamer (quencher-CACCTGGGGGAGTATTGCGGAGGAAGG + anchor), 100 nM annealed; ATP concentration: 500 uM
Summary of the method: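 Cy3-labelled switching-strand clusters on a modified Illumina MiSeq flow-cell were annealed to 100 nM quencher-labelled ATP aptamer and imaged first in selection buffer, then after 15 min with 500 uM ATP at 22 °C. NaOH stripping and re-annealing separated each of five buffer/ATP cycles, and clusters outside 100-1000 RFU were excluded. The fluorescence ratio sums target-cycle Cy3 intensity over buffer-cycle Cy3 intensity per cluster and averages it per switch-domain sequence.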
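Note: ATP exposure 15 min at 22 °C before imaging.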

| Sequence | switch fluorescence ratio |
| --- | --- |
| AGTCACGGGT | 1.03 ± 0.016 |
| AGTCACGTAG | 1.03 ± 0.019 |
| AGTCATCGGC | 1.01 ± 0.056 |
| AGTCATTATG | 1 ± 0.036 |
| AGTCCGATGC | 1.51 ± 0.17 |
| AGTCCGGGTT | 0.991 ± 0.036 |
| AGTCCTCGGA | 0.96685 ± 0.00022 |
| AGTCCTTTT | 0.9882 ± 0.0095 |
| AGTCGACTGT | 0.956 ± 0.02 |
| AGTCGAGGGG | 1.01 ± 0.02 |
| AGTCGCCTGG | 1.003 ± 0.002 |
| AGTCGGAAAG | 1.02 ± 0.015 |
| AGTCGGATGT | 0.989 ± 0.023 |
| AGTCGGGCGC | 0.983 ± 0.051 |
| AGTCGGGGGG | 0.989 ± 0.021 |
| AGTCGGTGCA | 0.9855 ± 0.0013 |
| AGTCGGTTAA | 1.02 ± 0.046 |
| AGTCGTATTT | 0.963 ± 0.019 |
| AGTCGTGCGG | 0.988 ± 0.037 |
| AGTCGTTTGC | 0.938 ± 0.061 |
| AGTCTAAATA | 1.02 ± 0.02 |
| AGTCTAGAGA | 1.015 ± 0.0095 |

| Sequence | switch fluorescence ratio |
| --- | --- |
| AGTCTGTAGT | 0.981 ± 0.036 |
| AGTCTTGGTG | 0.973 ± 0.018 |
| AGTGAAAGTT | 1 ± 0.012 |
| AGTGAGCTAT | 1.01 ± 0.018 |
| AGTGAGGTGC | 1.02 ± 0.01 |
| AGTGAGTCGT | 0.961 ± 0.035 |
| AGTGAGTTTT | 1.03 ± 0.024 |
| AGTGATATGA | 0.9882 ± 0.0021 |
| AGTGATTTCG | 1.01 ± 0.043 |
| AGTGCCGTAA | 1.025 ± 0.0056 |
| AGTGCGGACA | 1 ± 0.051 |
| AGTGCGGGGG | 1.036 ± 0.0073 |
| AGTGCGTTTC | 0.996 ± 0.031 |
| AGTGCTAGGG | 1 ± 0.024 |
| AGTGGATTGT | 1.01 ± 0.046 |
| AGTGGCAGTG | 1 ± 0.022 |
| AGTGGGCAGG | 1.04 ± 0.02 |
| AGTGGGGCT | 0.9794 ± 0.0071 |
| AGTGGGGGTT | 0.983 ± 0.019 |
| AGTGGGGTTA | 0.999 ± 0.04 |
| AGTGGTACCG | 0.99 ± 0.024 |
| AGTGGTGGGA | 1.01 ± 0.033 |

| Sequence | switch fluorescence ratio |
| --- | --- |
| AGTGGTGGGC | 0.979 ± 0.056 |
| AGTGGTGGTG | 0.9902 ± 0.0039 |
| AGTGGTTTAT | 0.985 ± 0.014 |
| AGTGTACTAG | 1.045 ± 0.0022 |
| AGTGTAGAGC | 0.975 ± 0.017 |
| AGTGTCAGAA | 0.9896 ± 0.0084 |
| AGTGTCCGAT | 0.9895 ± 0.0053 |
| AGTGTCCTGG | 0.986 ± 0.013 |
| AGTGTGACAG | 0.987 ± 0.018 |
| AGTGTGAGGC | 1.03 ± 0.028 |
| AGTGTGGCCT | 1 ± 0.025 |
| AGTGTGGGCA | 0.965 ± 0.026 |
| AGTGTTCGCG | 1 ± 0.015 |
| AGTGTTCGTC | 1.05 ± 0.011 |
| AGTGTTGGGT | 1.02 ± 0.01 |
| AGTGTTTGGT | 0.989 ± 0.021 |
| AGTGTTTTTG | 0.9936 ± 0.0011 |
| AGTTAAAGGT | 0.992 ± 0.023 |
| AGTTAACCGG | 1.006 ± 0.0027 |
| AGTTACGCGC | 1.04 ± 0.032 |
| AGTTACTGGG | 1.06 ± 0.046 |
| AGTTAGAGGT | 1.05 ± 0.018 |

| Sequence | switch fluorescence ratio |
| --- | --- |
| AGTTAGAGTC | 0.99925 ± 0.00026 |
| AGTTAGATCT | 1.005 ± 0.009 |
| AGTTAGGCAA | 1.01 ± 0.014 |
| AGTTAGTATG | 0.979 ± 0.032 |
| AGTTAGTTGT | 1 ± 0.028 |
| AGTTATGTGG | 1 ± 0.056 |
| AGTTATTATT | 0.963 ± 0.0055 |
| AGTTATTGTG | 1.04 ± 0.094 |
| AGTTCTGGCC | 1.03 ± 0.068 |
| AGTTGAACCA | 1 ± 0.012 |
| AGTTGAGAGG | 0.972 ± 0.0088 |
| AGTTGAGCAA | 1.29 ± 0.048 |
| AGTTGATCCC | 1.02 ± 0.025 |
| AGTTGATTGG | 0.983 ± 0.027 |
| AGTTGCCGCG | 0.996 ± 0.012 |
| AGTTGCCTG | 0.997 ± 0.08 |
| AGTTGCGTTG | 0.996 ± 0.015 |
| AGTTGCTAAG | 0.986 ± 0.035 |
| AGTTGGAAAG | 0.977 ± 0.013 |
